Drawing on paper doi:10.1101/2023.01.18.524603, this text covers K half for two substances.

Common to all, as to test: EMSA
Conditions in all cases: EMSA: 25 mM Tris-HCl pH 7.4, 100 mM NaCl, 5 ng DNA in 10 ul, 20 min, room temperature, AFM: 25 mM HEPES-NaOH pH 7.4, 5 mM MgCl2, 50 mM NaCl, 10% glycerol

Data set [1] relates to Rec114(325-428)-Mei4(1-90) (Saccharomyces cerevisiae).
Data set [2] has as its system Rec114(386-428)-Mei4N (Saccharomyces cerevisiae).
Data set [3] concerns Rec114(388-428) K399A/R400A-Mei4N (Saccharomyces cerevisiae).
Data set [4] relates to Rec114(388-428) K403A/K407A-Mei4N (Saccharomyces cerevisiae).
Data set [5] has as its system Rec114(388-428) K417A/K424A-Mei4N (Saccharomyces cerevisiae).
Data set [6] relates to Rec114(388-428) R395A/K396A-Mei4N (Saccharomyces cerevisiae).
Data set [7] concerns Rec114(388-428)-Mei4(13-43) (Saccharomyces cerevisiae).
Data set [8] deals with Rec114(388-428)-Mei4N (Saccharomyces cerevisiae).
The target in data set [9] is T1, Rec114C-Mei4N (RM-TDB) (Saccharomyces cerevisiae) (UniProt P32841+P29467).
T1 sequence 1: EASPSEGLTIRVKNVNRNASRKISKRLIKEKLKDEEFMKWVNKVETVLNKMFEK
T1 sequence 2: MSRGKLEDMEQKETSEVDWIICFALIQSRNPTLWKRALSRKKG

In data set [10] the test system is Rec114C-Mei4N-ybbR (Saccharomyces cerevisiae).
In data set [11] the test system is Rec114C-Mei4N-ybbR-LD650 (Saccharomyces cerevisiae).
The test system of data set [12] is Rec114C (Saccharomyces cerevisiae).

For 150-bp linear DNA, the K half in data set [1] came to 90 nM; in [2] it was 110 nM; in data set [3], 2000 nM; in [4], 1000 nM; in data set [5] it was 900 nM; in [6], 1000 nM. The K half in [7] stood at 100 nM; in data set [8] it was 110 nM; in [9], 90 nM; in data set [10], 90 nM; in data set [11] it was 90 nM.

Consider 1000-bp linear DNA, for which the K half in [12] worked out at 300 nM; in data set [9], 80 nM.
